Target: recombinant human paraoxonase 2 (rPON2) (human) (UniProt Q15165)
Assay: SEC; Hi-Load 26/600 Superdex 75, renaturing buffer (20 mM Hepes pH 8.5, 0.5 mM CaCl2, 0.1% trehalose), 1.5 mL/min, pooled Ni-NTA fractions of refolded rPON2; calibrated with gel filtration markers; dimer to monomers

“recombinant human paraoxonase 2 (rPON2) (from UniProt Q15165 1-354) (enzyme)” gave a stoichiometry N of 2.

Reference: article PMC11173892
